Paper PMC10930109

Molecular target: Envelope (E) protein of tick-borne encephalitis virus strain Sofjin-Chumakov (Far-Eastern subtype), (Tick-borne encephalitis virus, strain Sofjin-Chumakov) (UniProt P07720)
Assay: cryo-EM structure

Envelope (E) protein of tick-borne encephalitis virus strain Sofjin-Chumakov (Far-Eastern subtype), (from UniProt P07720) (natural protein)
stoichiometry N: 2
